In publication PMC2649420 one finds Kd data, which are given here for one substance.

Read-outs that look alike come from different tables or passages of the source.

Assay in all cases: SPR
Test [1] concerns the target Sbi-III-IV (amino acids 150-266), domains III and IV of Sbi (S. aureus strain Mu50) (UniProt Q99RL2).
Test [2] has the same target. This is another data set of the same source.
Test [3] addresses Sbi-IV (amino acids 197-266), domain IV of Sbi (S. aureus strain Mu50) (UniProt Q99RL2).

With “C3dg, recombinant (from UniProt P01024 955-1303) (domain or fragment)”, the equilibrium dissociation constant (Kd) is 700 nM in test [1], 1400 nM in test [2] and 800 nM in test [3].
